Measured values from the DeepSol protein solubility set.

Assay: soluble on expression in E. coli; label from the status in PepcDB or PDB records

Sequence	soluble on expression in E. coli
MSVSSEISASKLPYVRIPGSKPVPRLLKWTIFKCSFMKIRTIGLHHPDGRLYFFEFCQGKDTFVPHVCSACLPIITEKDLFPDYIVWAEEIEDYVIFAFSSMSNKMEQFVYSFETRRFVEVDLPELVYNRGDATTGDIVAALYGENETIVIERDENGAMLIRSFVHKDNSRKPVNTLVMQNIEKNGLQVGKDEEVTDISNEFGYLDYVETLPELKIKTCSANRTSIHVFSKKTGRYLKYHYVINTGSFINTSNLDCSNCNSVTSEKYLLPEYSVYSKALDARVIHCTNNLTSDIEQYTFNPDTNAFEQVYCKELVYDPNRFNRASLAAYVFPENVANNGTVIISRDVYEVIQKEKYSIVTDEYVVLPAAPVKTFAVRIQEEKQKKLDEEEQQKVLKTQELEKQKDGQIVIMELEMKEMTTLLEEKDTRIKMHVEKHRDKECELELVRRKLDDCVVRMQGAFERDIKLEEAKVQASREAKKQYENLMTILGEKE	not soluble
MSWQLALYNGLWRALTPLVRRYLKKRARKAPAYLEHWDERFGQALSPSATGAIWIHAVSVGETRAAQPLVAAIRREWPDAPLLLTQMTPTGRATAEQLYPDAEVRYLPYDYPQAAADFLRAYRPRCGVLMETEIWPNLIHAAAAQRIPLLLANARLSEKSLNGYRKIAGLISPAIAKLTAVAAQTAEDADRLRQLGARSVSVCGSSKYDIEVPEAQRHLAADFRAMAGGRRALLCASTRDGEEALILDAWLAAGAAVGDTLLVLVPRHPERWDEVEKLAAERGLKSQRRSGGAAIAADTRVWLGDSMGEMFGYLGACDVAFIGGSLLPYGCHNLIEPAQVGVPALFGPSVFNFQQAAADSLAAGAGRQVGDAAALVSTALSLMDDPAAGEAMRQGAVRFRDAHRGASERMLALIREAMSAGSEKLEHHHHHH	not soluble
MSYAKEMLDAIEAGQMETAKQLFTQVLAHDDDETQYNLAEELYALGFNGQAKRLYQGLLGRYPDQGDLATALADIAVSDGDTDAALNYLSRIQPGDPAYVQSLVSAADVYQTLGLYEVSEQKLLEAKRLAPDEPVVTFALGEFYFDWGHFAEAISAYNELLAAGTTELAGVNIEARLAASLAQTGQYEDAVAAYEDVGVDALDLNGRFELGGLYLQLDDPAKAITNLQAVIDSDPSYANAYLPLARAYEAQNQPDKALDTVQAGVMVDDTNPTLYALGGKLALSEDNVKLAETYLQKALAIDPEDQGNMLAWSNFLVQEERDQENVDFLDQIDRSGDVDPQIYWNMAKSYDRLENIKKARENYLLAFNRFQDSPDFLHDIIDFFQSTGARAELKAALVRYLKLVPTDDEMQARLDELNAETDLEHHHHHH	soluble
MSYGDGLSGAEYLASIYGTEKDKVNCSFFFKTGACRHGDKCSRAHHTPTFSPTVVLKNFYHNPVVDVRQADAFDKVGKRNDQEQRYFDDFYEEVFVEMERKYGEVEEINVCENIGEHMVGNVYVKFMKEEDAEKAKNDLNNRWFNGQPIYAELCPVTDFRESRCRQHEVTTCSKGGFCNFMHLKAISAELGDRLYGRRGRRADAAGHYPSQRGGSGGGGGGGGGGGYGSGGGWGGGGGGRDRDRGGWGGGGGGRGYGGGGGGGGYGYGGGGGGRRRSRSRDRRRY	not soluble
MSYNNSYDVIILAGGLSKRFGADKCCFEVNSKTMLDRLLEQFDNPIVVSRSPRRIKKGILVIEKGEYEGPVKGVREGLKYVRRDRVFITGCDFPFLIKNLVDYVCSKPYDIVIPFDHRPQPLLACYSTELLNKNIDKINGLVELIELSSSVYFIGTEELLKIDPFLYSLININSIIDLIYRPIRIKTKSNFILRLEHHHHHH	not soluble
MSYQFTELKEELIIKKIVSLHYFEYMSDFTFPGESHNFWEFLYVDKGELQVTADREKFILRQGQIIFHRPNEFHALAANNVIAPNLVVISFEAGEPCMAFFEHKILTVGESERNLLSQIIAEARETFDGPMDDPYMEVLSRRESIPFGAEQMIKIHLEQFLIQLFRNFSGTLAFGENHKLNGAHAPGKSPALADGNELFSDILDYLDRNIGKSLTVEKICRDNLIGVSQLKKLFRTYQGSGVMECFNQMKINAAKQMIRNQQMNFTQIADALGYTSVHYFSRQFKKLTDMTPTEYRASIMLRAKRPQRKHL	not soluble
MSYSPSLKEIIAILQKYTSKNYQSNCKTRPDGKLELSLNGVFEEIVKTPGKTRYVTHKQLDQKLKDFKQDLMVELHDTFATKTDLKESEARINQKLEALIQIVMVQGEQIKVHGEQINKLTQAVEKQGEKIEAQGQQIQKVNETLNFVVESLGSIHKRLDSMEGRLDSMENRLDKLESKLEHHHHHH	not soluble
